{"source": "the nanobody polyreactivity screen of Harvey et al. (2022)"}
{"assay": "yeast display, Sf9 membrane polyspecificity reagent, FACS + sequencing; frameworks hold sequencing errors", "method_in_brief": "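Sorting gates, low and high (top ~1%), were placed on anti-HA fluorescence to track expression and on streptavidin fluorescence to track reagent binding. A clone's polyreactivity label is taken from the gate it came out of. The reagent was 10% biotinylated, detergent-solubilized Sf9 membrane, applied for 1 hour at 4 °C to galactose-induced yeast display cells.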"}
{"sequence": "QVQLVESGGGLVQAGGSLRLNCAASGSIFGQYTMGWYRQAPGKERELVADITSGGSTYYADSVKGRFTISRDNAKNTVYLQMNSLKPEDPAVYYCAAVDWKAHWEMGYWGQGTQVTVSS", "polyreactivity (PSR sort gate)": "low polyreactivity"}
{"sequence": "QVQLVESGGGLVQAGGSLRLNCAASGSILYLNAMGWYRQAPGKERELLAAITWSGGSTSYADSVKGRFTISRDYAKNTVSLQMNSLKPEDTAVYYCSAVRRGYGGVYYAGGYWGQGTQVTVSW", "polyreactivity (PSR sort gate)": "low polyreactivity"}
{"sequence": "QVQLVESGGGLVQAGGSLRLNCAASGSTFNRNAMGWYRQAPGKERELVATISSGGSTNYADSVKGRFTITRDNAKNTVYLLMISLYPEDTWVYYCAKRSLYRYYYWGQGSQVTVSS", "polyreactivity (PSR sort gate)": "high polyreactivity"}
{"sequence": "QVQLVESGGGLVQAGGSLRLNSAASGIIFPRYAMGWYSQAPGKEWEVVAGFTSSGGTYYADSVKGRFTISRDHAKNTVYLQMNSLIPEDTAVYYCAARQGNLRRGVRWFNYWGQGTQVTVSS", "polyreactivity (PSR sort gate)": "high polyreactivity"}
{"sequence": "QVQLVESGGGLVQAGGSLRLRCAASGFIFSAYAMGWYSQAPGKERELVAGITKSVGRTTYADSVKGRFTIARDNAKNTVYLQMNSLKPEDTAVYYCNARRSYTYRIFGMDYWGQGTQVTVSS", "polyreactivity (PSR sort gate)": "high polyreactivity"}
{"sequence": "QVQLVESGGGLVQAGGSLRLRCAASGFNFSFDNAMGWYRQAPGKERELVAAISSGTTTHYADSVKGRFTISRDNAKNTVYLQMNSLKPEDTAVYYCAADTAQQSGYEYDYWGQGTQVTVSS", "polyreactivity (PSR sort gate)": "low polyreactivity"}
{"sequence": "QVQLVESGGGLVQAGGSLRLRCAASGFNSVRNAMGWYRPAPGKEREFVAAISGGGGSTYYADSVKGRFTISRDNAMNTVYLQMNSLKPEDTAVYYCAPRSYWGQGTQVTVSS", "polyreactivity (PSR sort gate)": "high polyreactivity"}
{"sequence": "QVQLVESGGGLVQAGGSLRLRCAASGIIFPYYTMGGYRQAPGKERELVARITNGGRTYYADSVKGRFTISRDNAKNTVYLQMNSLKPEYTAVYYCIAGRYYIGGYWGQGTQVTVSS", "polyreactivity (PSR sort gate)": "high polyreactivity"}
{"sequence": "QVQLVESGGGLVQAGGSLRLRCAASGIIFSPYDMGWSIQAPGKVRELVAAITTGDSTNYADSVKGRFTMSRDNAKTTVYFPMNSLKPEDTAVDYCNATDTYVFFLYLEFDYWGQGTQVTVSS", "polyreactivity (PSR sort gate)": "low polyreactivity"}
{"sequence": "QVQLVESGGGLVQAGGSLRLRCAASGIIFTGYALGWYRQAPGKESELVAAISRSGGGTYYADSVKARFTISRDNAKNTVYLQINSLKPEDTAVYYCNRLRIAASYWQAYDYWGQGTQVTLSS", "polyreactivity (PSR sort gate)": "high polyreactivity"}
{"sequence": "QVQLVESGGGLVQAGGSLRLRCAASGIIQQSYALGWSRQAPGKERELVAAIRGSDGSTYYADSVKGRFTISRDNAKNTVYLQMNSLKPEDTAVYYCNADTRTWPLDYWGQGTQVTVSS", "polyreactivity (PSR sort gate)": "low polyreactivity"}
{"sequence": "QVQLVESGGGLVQAGGSLRLRCAASGNIFLSYAMGWYRQAPGKERELVAGISASGGRTYYADSVKGRFTISRDNAKNTVYLQMNSLKPEDTAVYYCATRGQTRTTTRYYSWGQGTQVTVSS", "polyreactivity (PSR sort gate)": "high polyreactivity"}
{"sequence": "QVQLVESGGGLVQAGGSLRLRCAASGRIFARNAMGWYRQAPGKERELVAAISSRGSSTYYADSVKGRFTISRDNAKNTVYLQMNSLKPEDTAVYYCNAYYSVYPPGYDYWGQGTQVTVSS", "polyreactivity (PSR sort gate)": "high polyreactivity"}
{"sequence": "QVQLVESGGGLVQAGGSLRLRCAASGRIFDANAMGWYRQAPGKERELVAAITSRGGTTFYADSVKGRFTISRDNEKNTDYLQMNSLKPEDTAVYYCAADRYYFYRRYDYWGQGTQVTVSS", "polyreactivity (PSR sort gate)": "high polyreactivity"}
{"sequence": "QVQLVESGGGLVQAGGSLRLRCAASGRIFGRNAMGWYRQAPGKERELVAAISGGGSTNYADSVKGRFTISRDNAKNTVYLQMKSLKPADTAVYYCAVKQGFYSRALKLYYWGQGTQVTVSS", "polyreactivity (PSR sort gate)": "high polyreactivity"}
{"sequence": "QVQLVESGGGLVQAGGSLRLRCAASGRIFLPYAMGWYRQAPGKERELVAGISSRGSTKYADSVKGRFTISRDNAKNTVYLQMNTLKPEETAVYYCNKVKKSDKFNNFSNDYWGQGTQVTVSS", "polyreactivity (PSR sort gate)": "high polyreactivity"}
{"sequence": "QVQLVESGGGLVQAGGSLRLRCAASGRIFRKYAMGWYRQAPGKERELVAAITSGGSTYYADSVKGRFTISRDNAKNTVYLQMNSLKPEDTAVYYCAAFYRGGDYWGQGTQVTVSS", "polyreactivity (PSR sort gate)": "high polyreactivity"}
{"sequence": "QVQLVESGGGLVQAGGSLRLRCAASGRIFRPYTMGWYRQAPGKERELVAAITSGSSTNYADSVKGRFTISRDNAKNTVYLQMNSLKPEDTAVYYCAVKVRIFASYYPFYYWGQGTQVTVSS", "polyreactivity (PSR sort gate)": "high polyreactivity"}
{"sequence": "QVQLVESGGGLVQAGGSLRLRCAASGRIFVYNAMGWYRQAPGKERELVAAISRSGSSTYYADSVKGRFTISRDNAKNTVYLQMYSLKPEDTSVYYCAARTFSIAYYKYGYWGQGTHVTVSS", "polyreactivity (PSR sort gate)": "high polyreactivity"}
{"sequence": "QVQLVESGGGLVQAGGSLRLRCAASGRTFAVYAMGWYRQAPGKERELVAAITLGASRSYYADSVKGRFTISRDNAKNTVYLHMNSLKPEDTAVYYCNAVGRRNVVSSLNDYWGQGTQVTVSS", "polyreactivity (PSR sort gate)": "low polyreactivity"}
{"sequence": "QVQLVESGGGLVQAGGSLRLRCAASGRTFCWYAMGWYRQAPGKERELVADITYSGGNTYYADSVKGRFTITRDNAKNTVYLQMNSLKPEDTAVYYCAAERKNKYDYWGQGTQVTVTS", "polyreactivity (PSR sort gate)": "high polyreactivity"}
{"sequence": "QVQLVESGGGLVQAGGSLRLRCAASGRTFDTYAMGWYRQAPWKERELVASITYRGGSTYYADSVKGRFTISRDNGKNTVYLQLNSLKPVDTAVYYCNAKVKRNKRWRGYWGQGTQVTVSS", "polyreactivity (PSR sort gate)": "high polyreactivity"}
{"sequence": "QVQLVESGGGLVQAGGSLRLRCAASGRTFLTNTLGWYRQAPGKERELVAAISSGGSTKYADSVKGRFTISRDNAKNTVYLQMNSLKTEDTAVYYCAATGWRYGYKYYYWGQGTQVTVSS", "polyreactivity (PSR sort gate)": "high polyreactivity"}
{"sequence": "QVQLVESGGGLVQAGGSLRLRCAASGRTFWWNAMGWYRQAPGKERELVAGTYSRGGGTYYADSVKGRFTISRDNAKNRVYLQMNRLKAEDTAVYYCASQAPVYRYYYWGQGTQVTVSS", "polyreactivity (PSR sort gate)": "high polyreactivity"}
{"sequence": "QVQLVESGGGLVQAGGSLRLRCAASGRTFYYNVMGWYRQAPGKERELVATITSGASTNYADSVKGRFTISRDNAKNTVYLQMNSLKPEDTAVYYCNTEYYPRWYGPYSYYDFDSWGQGTEVTVSS", "polyreactivity (PSR sort gate)": "low polyreactivity"}
{"sequence": "QVQLVESGGGLVQAGGSLRLRCAASGRTLGRYAMGWYRQAPGKDRELVAAIRIGGGSTYYADSVKGRFTISRDNAKNTVYLQMISLKPEDTAVYYCATRGYINGAGFGYWGQGTQVTVSS", "polyreactivity (PSR sort gate)": "high polyreactivity"}
{"sequence": "QVQLVESGGGLVQAGGSLRLRCAASGSIFFYYVMGWYRQAPGKEREFVAAITYSGGSTYYADSVKGRFTISRDNAKNTVYFQMNSMQQEDTAVYYCAADYSPSIGGFWFGGRHYGYWGQGTQVTVSS", "polyreactivity (PSR sort gate)": "low polyreactivity"}
{"sequence": "QVQLVESGGGLVQAGGSLRLRCAASGSIFPWYAMGWYRQAPGKERELVAAITISGGSTHYADSVKGRFTISRDNAKNTVYLQMNCLKPEDTAVYYCATPRYPSYDYWGQGTQVTVSS", "polyreactivity (PSR sort gate)": "low polyreactivity"}
{"sequence": "QVQLVESGGGLVQAGGSLRLRCAASGSNFNPYAMGWYRQAPGKERELVAAINSRGGSTYYADSVKGRFTISRDNANNTVYLQMNSLKPQDTAVYYCAARTRRRTSAYEYWGQGTQVTVSS", "polyreactivity (PSR sort gate)": "high polyreactivity"}
{"sequence": "QVQLVESGGGLVQAGGSLRLRCAASGSTFHIYAMGWYRQAPGKERELVAAISKGGGNTYYADSVKGRFTISRDNAKNPVYLQLNSLKPEDTAGYYCAAVPTRYRSYSYTYGGYNYWGQGTQVTVSS", "polyreactivity (PSR sort gate)": "high polyreactivity"}
{"sequence": "QVQLVESGGGLVQAGGSLRLRCAASGSTFRNAMGWYRQAPGKERELVAAISYSGGRTYYADSVKGRFTISRDNAKNTVYLQMNSLKPEDTAVYYCASPGVSWSTRSYYYWGQGTQVTVSS", "polyreactivity (PSR sort gate)": "high polyreactivity"}
{"sequence": "QVQLVESGGGLVQAGGSLRLRCAASGSTFSIYAMGWYRQATGKQRELVAAISSSGGSTYYADSVKGRFTISRDTAKNTGYLQMNSLKPEDTAFYYCNKRKYHVRYDYWGQGTQVTVSS", "polyreactivity (PSR sort gate)": "low polyreactivity"}
{"sequence": "QVQLVESGGGLVQAGGSLRLRCAASGSTSPNAMGWYRQAPGKERELVAAIWSGGTYYADSVKGRFTISRDNAKNTVYLQMNSLKPEDTAVYYCAVTGVYRGFRYGYWGQGTQVTVSS", "polyreactivity (PSR sort gate)": "low polyreactivity"}
{"sequence": "QVQLVESGGGLVQAGGSLRLRCAASGTTFRLYAMGWYRQAPGKERELVAAISWIGGRTYYADSVKGRFTISRDNAKNTVYLQMNSLKPEDTAVYYCAATCAYRVARGYDYWGQGTQVTVSS", "polyreactivity (PSR sort gate)": "high polyreactivity"}
{"sequence": "QVQLVESGGGLVQAGGSLRLRCAATGRTFGWYAMGWYRQAPGKEREFVATITRSGGRTYYADSVKGRFTISRDNAKNTVYFQMNSLKPEDTAVYYCAADTNRYRYSYDYWGQGTQVTVSS", "polyreactivity (PSR sort gate)": "high polyreactivity"}
{"sequence": "QVQLVESGGGLVQAGGSLRLRCAAYGSIFDKNSMGWYRQAPGKERELVAAITRSGRSTYYADSVKGRFTISRDNAKNTVYLQMNSLKPEDTALYYCAADVWPRWGLYYWGQGTQVTVTS", "polyreactivity (PSR sort gate)": "high polyreactivity"}
{"sequence": "QVQLVESGGGLVQAGGSLRLRCASSGITFTLNAMGWYRQAPGKERELVAAISGSGGRTYYADSVKGRFTISRDNAKNTVYLQMNSLKPEDTAVYYCAAAVLDRYTRYIWYIYDYWGQGTQVTVSS", "polyreactivity (PSR sort gate)": "high polyreactivity"}
{"sequence": "QVQLVESGGGLVQAGGSLRLRCASSGRIFFGYAMGWYRQAPGKERELVASISRGGSTNYADSVKGRFTISRDNAKNTVYLQMHSLKPEDTAVYYCAASRYLQRYGMYYWGQGTQVTVSS", "polyreactivity (PSR sort gate)": "high polyreactivity"}
{"sequence": "QVQLVESGGGLVQAGGSLRLRCASSGRTFQYYAMGWYRQAPGKEMELVAAISWSGGSTYYADSVKGRFTISRDNAKNTVYLQMNSLKPEDTAVYYCAAVVGRNGTRSYGYWGQGTQVTVSS", "polyreactivity (PSR sort gate)": "high polyreactivity"}
{"sequence": "QVQLVESGGGLVQAGGSLRLRCGASGSTFGIYAMGWYRQAPGKERELVAAITLRTDSTYYADSVKGRFTISRDNAKNTVYLQMNSLKPEDTAVYYCARRYRYGYDYWGQGTQVSVSS", "polyreactivity (PSR sort gate)": "low polyreactivity"}
{"sequence": "QVQLVESGGGLVQAGGSLRLRCPASGRIIGSYTMGSYRQAPGKERELVAAISFSGARTRYADSVKGRFTISRDNAKNTVYFQMNSLKAEDTAVYYCAARFTGGKYDYWGLGTQVTVSS", "polyreactivity (PSR sort gate)": "high polyreactivity"}
{"sequence": "QVQLVESGGGLVQAGGSLRLRGAASGSTFGPNAMGWYRPAPGKEREFVASISWRGGRTYYADSVKGRFTISRDNAKNTVYLQMNSLNPEDTAVYYCAAVSYPAVYGFDYWGQGTQVTVSS", "polyreactivity (PSR sort gate)": "high polyreactivity"}
{"sequence": "QVQLVESGGGLVQAGGSLRLRSAASGSIIPEYVMGWYRQAPGKERELVAAISWSGGSTYYADSVKGRFTISRDNAKNTDYLQMNSLKPEDTAVYYCNRVPSWRIDYDYWGQGTQVTVSS", "polyreactivity (PSR sort gate)": "low polyreactivity"}
